Source: patent US20180222958A1 (ONCOMED PHARMACEUTICALS, published 2018)

Key:
[1] = target: T1, human LTβR ecd, CD4TM and GFP (human, UniProt P36941 31-227); test: flow cytometry on HEK 293T cells transiently transfected with human LTβR ecd-CD4TM-GFP (row 'hLTBR GFP'); '0.5 ug/ml' printed at the upper left of the figure; APC-conjugated Fc secondary
T1 construct: extracellular domain; also called hLTβR; hLThR-GFP; not shown: CD4 transmembrane domain and GFP fused after the extracellular domain
Experimental: (§1) To test the binding of the different c-terminal human lymphotoxin heterotrimer constructs to human and mouse LTβR, HEK 293T cells were transiently transfected with cDNA expression vectors encoding cDNA for human or mouse LTβR ecd, CD4TM and GFP. Cells were then incubated with the various human lymphotoxin constructs 363F2, 363F3, or 363F4, washed and stained with APC-conjugated Fc secondary antibody. Mouse (deglycosylated) IgG1 Fc-mouse lymphotoxin-αββ heterotrimer fusion protein 363F1 was also tested. Binding of the lymphotoxin constructs was then assessed by flow cytometry using a Canto II FACS instrument (BD Biosciences) and analyzed using FlowJo software.

[2] = target: T2, membrane-bound extracellular domain of mouse LTβR (mLTβR-CD4TM-GFP) (mouse, UniProt P50284 31-223); test: flow cytometry on HEK 293T cells transiently transfected with mouse LTβR ecd-CD4TM-GFP (row 'mLTBR GFP'); '0.5 ug/ml' printed at the upper left of the figure; APC-conjugated Fc secondary
T2 construct: extracellular domain; also called mouse LTβR ecd, CD4TM and GFP; mLThR-GFP; not shown: CD4 transmembrane domain and GFP fused after the extracellular domain
T2 sequence (P50284 31-223): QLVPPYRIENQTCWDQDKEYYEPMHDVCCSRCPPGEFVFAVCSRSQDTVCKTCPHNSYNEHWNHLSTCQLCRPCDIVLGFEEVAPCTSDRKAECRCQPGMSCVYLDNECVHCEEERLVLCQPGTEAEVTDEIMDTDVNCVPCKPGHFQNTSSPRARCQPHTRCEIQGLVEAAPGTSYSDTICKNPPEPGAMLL
Experimental: as §1

T1 sequence (P36941 31-227): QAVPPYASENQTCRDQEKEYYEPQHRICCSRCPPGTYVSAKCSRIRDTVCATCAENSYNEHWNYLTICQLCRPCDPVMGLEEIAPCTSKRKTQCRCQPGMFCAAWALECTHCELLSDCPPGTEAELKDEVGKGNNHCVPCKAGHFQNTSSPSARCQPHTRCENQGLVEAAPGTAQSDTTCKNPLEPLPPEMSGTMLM

B1: 363F1 mFc-mLTαββ (Fc fusion)
chain: GCKPCICTVPEVSSVFIFPPKPKDVLTITLTPKVTCVVVDISKDDPEVQFSWFVDDVEVHTAQTQPREEQFASTFRSVSELPIMHQDWLNGKEFKCRVNSAAFPAPIEKTISKTKGRPKAPQVYTIPPPKEQMAKDKVSLTCMITDFFPEDITVEWQWNGQPAENYKNTQPIMDTDGSYFVYSKLNVQKSNWEAGNTFTCSVLHEGLHNHHTEKSLSHSPGKKPAAHLVGYPSKQNSLLWRASTDRAFLRHGFSLSNNSLLIPTSGLYFVYSQVVFSGESCSPRAIPTPIYLAHEVQLFSSQYPFHVPLLSAQKSVYPGLQGPWVRSMYQGAVFLLSKGDQLSTHTDGISHLHFSPSSVFFGAFALLNPELPAAHLIGAWMSGQGLSWEASQEEAFLRSGAQFSPTHGLALPQDGVYYLYCHVGYRGRTPPAGRSRARSLTLRSALYRAGGAYGRGSPELLLEGAETVTPVVDPIGYGSLWYTSVGFGGLAQLRSGERVYVNISHPDMVDYRRGKTFFGAVMVGLNPELPAAHLIGAWMSGQGLSWEASQEEAFLRSGAQFSPTHGLALPQDGVYYLYCHVGYRGRTPPAGRSRARSLTLRSALYRAGGAYGRGSPELLLEGAETVTPVVDPIGYGSLWYTSVGFGGLAQLRSGERVYVNISHPDMVDYRRGKTFFGAVMVG
notes: also called mouse LTαββ; mouse (deglycosylated) IgG1 Fc-mouse lymphotoxin-αββ heterotrimer fusion protein
[1]
  MFI: 2260
[2]
  MFI: 4740
